# Biological target: T1, tissue factor (S33 to E251) (Homo sapiens, UniProt P13726)
# T1 construct: tissue factor (TF), residues S33 to E251; the antigen of the antibody D3h44 in PDB 1JPS; The tag was removed with Ulp1; tag-free TF was used; Antigen residues named in the text (S202, K169, P194, I152) follow the numbering of PDB 1JPS, not that of the construct limits; also called TF; antigen; source: E. coli BL21 (DE3), purified (Ni-NTA, SEC); not shown: His6, N-terminal, cleaved; SUMO, …
# Assay: SPR; Biacore 8K; TF immobilised on a CM5 chip by amine coupling (450-750 response units); Fab as analyte; single-cycle kinetics, association 120 s, dissociation 1800 s, no regeneration; PBS with 0.005% Tween-20; three measurements
# Conditions: both partners purified
# T1 sequence (P13726 33-251): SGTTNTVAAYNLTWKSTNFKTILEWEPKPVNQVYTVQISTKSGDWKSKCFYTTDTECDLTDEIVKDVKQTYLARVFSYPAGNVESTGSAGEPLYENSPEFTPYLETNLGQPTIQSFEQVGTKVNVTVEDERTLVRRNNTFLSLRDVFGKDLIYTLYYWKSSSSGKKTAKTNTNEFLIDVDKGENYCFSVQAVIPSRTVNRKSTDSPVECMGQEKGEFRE
Kd,koff,kon,binding result,Binder
0.02 nM,2.7e-05 s⁻¹,1.4e+06 M⁻¹ s⁻¹,–,"D3h44 Fab L-H91E (Fab, V domains shown, as the heavy chain of m2 (PDB 1JPS chain H); as the light chain of m2 (PDB 1JPS chain L) with the stated change; Tag as for m2; source: ExpiCHO, purified (Ni-NTA, SEC)) VH: EVQLVESGGGLVQPGGSLRLSCAASGFNIKEYYMHWVRQAPGKGLEWVGLIDPEQGNTIYDPKFQDRATISADNSKNTAYLQMNSLRAEDTAVYYCARDTAAYFDYWGQGTLVTVSS VL: DIQMTQSPSSLSASVGDRVTITCRASRDIKSYLNWYQQKPGKAPKVLIYYATSLAEGVPSRFSGSGSGTDYTLTISSLQPEDFATYYCLQEGESPWTFGQGTKVEIK"
0.14 nM,0.00018 s⁻¹,1.3e+06 M⁻¹ s⁻¹,–,"D3h44 Fab H-A101V (Fab, V domains shown, as the heavy chain of m2 (PDB 1JPS chain H) with the stated change; as the light chain of m2 (PDB 1JPS chain L); Tag as for m2; source: ExpiCHO, purified (Ni-NTA, SEC)) VH: EVQLVESGGGLVQPGGSLRLSCAASGFNIKEYYMHWVRQAPGKGLEWVGLIDPEQGNTIYDPKFQDRATISADNSKNTAYLQMNSLRAEDTAVYYCARDTVAYFDYWGQGTLVTVSS VL: DIQMTQSPSSLSASVGDRVTITCRASRDIKSYLNWYQQKPGKAPKVLIYYATSLAEGVPSRFSGSGSGTDYTLTISSLQPEDFATYYCLQHGESPWTFGQGTKVEIK"
0.029 nM,2.6e-05 s⁻¹,940000 M⁻¹ s⁻¹,–,"D3h44 Fab H-K30Q/H-E54H double-point mutant (Fab, V domains shown, as the heavy chain of m2 (PDB 1JPS chain H) with the stated changes; as the light chain of m2 (PDB 1JPS chain L); Tag as for m2; source: ExpiCHO, purified (Ni-NTA, SEC)) VH: EVQLVESGGGLVQPGGSLRLSCAASGFNIQEYYMHWVRQAPGKGLEWVGLIDPHQGNTIYDPKFQDRATISADNSKNTAYLQMNSLRAEDTAVYYCARDTAAYFDYWGQGTLVTVSS VL: DIQMTQSPSSLSASVGDRVTITCRASRDIKSYLNWYQQKPGKAPKVLIYYATSLAEGVPSRFSGSGSGTDYTLTISSLQPEDFATYYCLQHGESPWTFGQGTKVEIK"
0.2 nM,0.00026 s⁻¹,1.3e+06 M⁻¹ s⁻¹,–,"D3h44 Fab L-H91N (Fab, V domains shown, as the heavy chain of m2 (PDB 1JPS chain H); as the light chain of m2 (PDB 1JPS chain L) with the stated change; Tag as for m2; source: ExpiCHO, purified (Ni-NTA, SEC)) VH: EVQLVESGGGLVQPGGSLRLSCAASGFNIKEYYMHWVRQAPGKGLEWVGLIDPEQGNTIYDPKFQDRATISADNSKNTAYLQMNSLRAEDTAVYYCARDTAAYFDYWGQGTLVTVSS VL: DIQMTQSPSSLSASVGDRVTITCRASRDIKSYLNWYQQKPGKAPKVLIYYATSLAEGVPSRFSGSGSGTDYTLTISSLQPEDFATYYCLQNGESPWTFGQGTKVEIK"
0.097 nM,0.00014 s⁻¹,1.5e+06 M⁻¹ s⁻¹,–,"D3h44 Fab H-K30Q (Fab, V domains shown, as the heavy chain of m2 (PDB 1JPS chain H) with the stated change; as the light chain of m2 (PDB 1JPS chain L); Tag as for m2; source: ExpiCHO, purified (Ni-NTA, SEC)) VH: EVQLVESGGGLVQPGGSLRLSCAASGFNIQEYYMHWVRQAPGKGLEWVGLIDPEQGNTIYDPKFQDRATISADNSKNTAYLQMNSLRAEDTAVYYCARDTAAYFDYWGQGTLVTVSS VL: DIQMTQSPSSLSASVGDRVTITCRASRDIKSYLNWYQQKPGKAPKVLIYYATSLAEGVPSRFSGSGSGTDYTLTISSLQPEDFATYYCLQHGESPWTFGQGTKVEIK"
0.23 nM,0.00038 s⁻¹,1.7e+06 M⁻¹ s⁻¹,–,"D3h44 Fab L-H91Q (Fab, V domains shown, as the heavy chain of m2 (PDB 1JPS chain H); as the light chain of m2 (PDB 1JPS chain L) with the stated change; Tag as for m2; source: ExpiCHO, purified (Ni-NTA, SEC)) VH: EVQLVESGGGLVQPGGSLRLSCAASGFNIKEYYMHWVRQAPGKGLEWVGLIDPEQGNTIYDPKFQDRATISADNSKNTAYLQMNSLRAEDTAVYYCARDTAAYFDYWGQGTLVTVSS VL: DIQMTQSPSSLSASVGDRVTITCRASRDIKSYLNWYQQKPGKAPKVLIYYATSLAEGVPSRFSGSGSGTDYTLTISSLQPEDFATYYCLQQGESPWTFGQGTKVEIK"
0.025 nM,3e-05 s⁻¹,1.2e+06 M⁻¹ s⁻¹,–,"D3h44 Fab L-N34D/L-H91S double-point mutant (Fab, V domains shown, as the heavy chain of m2 (PDB 1JPS chain H); as the light chain of m2 (PDB 1JPS chain L) with the stated changes; Tag as for m2; source: ExpiCHO, purified (Ni-NTA, SEC)) VH: EVQLVESGGGLVQPGGSLRLSCAASGFNIKEYYMHWVRQAPGKGLEWVGLIDPEQGNTIYDPKFQDRATISADNSKNTAYLQMNSLRAEDTAVYYCARDTAAYFDYWGQGTLVTVSS VL: DIQMTQSPSSLSASVGDRVTITCRASRDIKSYLDWYQQKPGKAPKVLIYYATSLAEGVPSRFSGSGSGTDYTLTISSLQPEDFATYYCLQSGESPWTFGQGTKVEIK"
17 nM,0.059 s⁻¹,1.6e+07 M⁻¹ s⁻¹,–,"D3h44 Fab L-H91S (Fab, V domains shown, as the heavy chain of m2 (PDB 1JPS chain H); as the light chain of m2 (PDB 1JPS chain L) with the stated change; Tag as for m2; source: ExpiCHO, purified (Ni-NTA, SEC)) VH: EVQLVESGGGLVQPGGSLRLSCAASGFNIKEYYMHWVRQAPGKGLEWVGLIDPEQGNTIYDPKFQDRATISADNSKNTAYLQMNSLRAEDTAVYYCARDTAAYFDYWGQGTLVTVSS VL: DIQMTQSPSSLSASVGDRVTITCRASRDIKSYLNWYQQKPGKAPKVLIYYATSLAEGVPSRFSGSGSGTDYTLTISSLQPEDFATYYCLQSGESPWTFGQGTKVEIK"
0.15 nM,0.00018 s⁻¹,1.2e+06 M⁻¹ s⁻¹,–,"D3h44 Fab H-A101S/H-A102H double-point mutant (Fab, V domains shown, as the heavy chain of m2 (PDB 1JPS chain H) with the stated changes; as the light chain of m2 (PDB 1JPS chain L); Tag as for m2; source: ExpiCHO, purified (Ni-NTA, SEC)) VH: EVQLVESGGGLVQPGGSLRLSCAASGFNIKEYYMHWVRQAPGKGLEWVGLIDPEQGNTIYDPKFQDRATISADNSKNTAYLQMNSLRAEDTAVYYCARDTSHYFDYWGQGTLVTVSS VL: DIQMTQSPSSLSASVGDRVTITCRASRDIKSYLNWYQQKPGKAPKVLIYYATSLAEGVPSRFSGSGSGTDYTLTISSLQPEDFATYYCLQHGESPWTFGQGTKVEIK"
15 nM,0.038 s⁻¹,3.6e+06 M⁻¹ s⁻¹,–,"D3h44 Fab H-I59H (Fab, V domains shown, as the heavy chain of m2 (PDB 1JPS chain H) with the stated change; as the light chain of m2 (PDB 1JPS chain L); Tag as for m2; source: ExpiCHO, purified (Ni-NTA, SEC)) VH: EVQLVESGGGLVQPGGSLRLSCAASGFNIKEYYMHWVRQAPGKGLEWVGLIDPEQGNTHYDPKFQDRATISADNSKNTAYLQMNSLRAEDTAVYYCARDTAAYFDYWGQGTLVTVSS VL: DIQMTQSPSSLSASVGDRVTITCRASRDIKSYLNWYQQKPGKAPKVLIYYATSLAEGVPSRFSGSGSGTDYTLTISSLQPEDFATYYCLQHGESPWTFGQGTKVEIK"
–,–,–,no binding,"D3h44 Fab H-Y33Q/H-A101R double-point mutant (Fab, V domains shown, as the heavy chain of m2 (PDB 1JPS chain H) with the stated changes; as the light chain of m2 (PDB 1JPS chain L); Tag as for m2; source: ExpiCHO, purified (Ni-NTA, SEC)) VH: EVQLVESGGGLVQPGGSLRLSCAASGFNIKEYQMHWVRQAPGKGLEWVGLIDPEQGNTIYDPKFQDRATISADNSKNTAYLQMNSLRAEDTAVYYCARDTRAYFDYWGQGTLVTVSS VL: DIQMTQSPSSLSASVGDRVTITCRASRDIKSYLNWYQQKPGKAPKVLIYYATSLAEGVPSRFSGSGSGTDYTLTISSLQPEDFATYYCLQHGESPWTFGQGTKVEIK"
0.31 nM,0.00062 s⁻¹,2e+06 M⁻¹ s⁻¹,–,"D3h44 Fab L-N34D (Fab, V domains shown, as the heavy chain of m2 (PDB 1JPS chain H); as the light chain of m2 (PDB 1JPS chain L) with the stated change; Tag as for m2; source: ExpiCHO, purified (Ni-NTA, SEC)) VH: EVQLVESGGGLVQPGGSLRLSCAASGFNIKEYYMHWVRQAPGKGLEWVGLIDPEQGNTIYDPKFQDRATISADNSKNTAYLQMNSLRAEDTAVYYCARDTAAYFDYWGQGTLVTVSS VL: DIQMTQSPSSLSASVGDRVTITCRASRDIKSYLDWYQQKPGKAPKVLIYYATSLAEGVPSRFSGSGSGTDYTLTISSLQPEDFATYYCLQHGESPWTFGQGTKVEIK"
0.015 nM,1.8e-05 s⁻¹,1.3e+06 M⁻¹ s⁻¹,–,"D3h44 Fab H-N57Y (Fab, V domains shown, as the heavy chain of m2 (PDB 1JPS chain H) with the stated change; as the light chain of m2 (PDB 1JPS chain L); Tag as for m2; source: ExpiCHO, purified (Ni-NTA, SEC)) VH: EVQLVESGGGLVQPGGSLRLSCAASGFNIKEYYMHWVRQAPGKGLEWVGLIDPEQGYTIYDPKFQDRATISADNSKNTAYLQMNSLRAEDTAVYYCARDTAAYFDYWGQGTLVTVSS VL: DIQMTQSPSSLSASVGDRVTITCRASRDIKSYLNWYQQKPGKAPKVLIYYATSLAEGVPSRFSGSGSGTDYTLTISSLQPEDFATYYCLQHGESPWTFGQGTKVEIK"

# — article PMC7567794 (Scientific Reports, 2020)
